Experiments:
[1] = biological target: T1, hFcγR1 (R&D Systems 1257-FC-050/CF) (human, UniProt P12314 16-288); assay: SPR, antibody 100 nM on OX40-his chip co-injected with FcγR 500 nM
T1 construct: Bought; also called FcγRI
Method: (§1) Binding was tested on a Biacore 3000 instrument (GE Healthcare). Human OX40 (BPS Bioscience cat no 71310) and human CD137 (produced in house) biotinylated his-tagged antigens were coated onto an SA chip (GE Healthcare cat no BR100398) at 2 μM concentration. Human OX40 and human CD137 were coated on separate flow cells, while another flow cell was left blank for background subtraction. Regeneration conditions were determined to be 12 μl aqueous 10 mM glycine-HCl at pH2.0 at 20 μl/min flow rate. Antibodies (see Table 8) and human FcγRs (see Table 8) were diluted to 100 nM (antibodies) or 500 nM (human FcγRs) in HBS-P (0.01 M HEPES pH 7.4, 0.15 M NaCl, 0.005% v/v Surfactant P20, GE Healthcare, BR-1003-68) and co-injected at 20 μl/min flow rate and the dissociation was followed for 5 min.
(§2) Data analysis was performed with BiaEvaluation software version 3.2 RC1 by referencing against the blank flow cell and aligning the curves after the association of the antibody. Values for binding response at the end of the association phase were generated by subtracting the […] to normalize the effect of the antibody binding to the OX40 and CD137 receptors.

[2] = biological target: T2, hFcγR2a (R&D Systems 1330-CD-050/CF) (human, UniProt P12318 36-218, limits assumed); assay: as above
T2 construct: Bought; also called FcγRIIa
T2 sequence (looked up): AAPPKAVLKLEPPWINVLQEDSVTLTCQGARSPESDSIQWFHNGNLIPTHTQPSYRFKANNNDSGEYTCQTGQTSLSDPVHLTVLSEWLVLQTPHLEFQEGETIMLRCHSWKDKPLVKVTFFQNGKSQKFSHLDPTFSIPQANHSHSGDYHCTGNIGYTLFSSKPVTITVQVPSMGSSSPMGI
Method: as §1, §2

[3] = biological target: T3, hFcγR2b (R&D Systems 1460-CD-050/CF) (human, UniProt P31994 46-217, limits assumed); assay: as above
T3 construct: Bought; also called FcγRIIb
T3 sequence (looked up): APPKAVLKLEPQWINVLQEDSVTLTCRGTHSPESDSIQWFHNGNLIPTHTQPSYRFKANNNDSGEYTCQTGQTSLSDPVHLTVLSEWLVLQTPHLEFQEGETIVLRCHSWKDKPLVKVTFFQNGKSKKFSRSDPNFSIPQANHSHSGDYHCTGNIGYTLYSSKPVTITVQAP
Method: as §1, §2

[4] = biological target: T4, hFcγR3a (R&D Systems 4325-FC-050/CF) (human, UniProt P08637 17-208); assay: as above
T4 construct: Bought; In the ADCC bioassay FcγRIIIa stood on engineered Jurkat cells; also called FcγRIIIa
T4 sequence (P08637 17-208 limits assumed): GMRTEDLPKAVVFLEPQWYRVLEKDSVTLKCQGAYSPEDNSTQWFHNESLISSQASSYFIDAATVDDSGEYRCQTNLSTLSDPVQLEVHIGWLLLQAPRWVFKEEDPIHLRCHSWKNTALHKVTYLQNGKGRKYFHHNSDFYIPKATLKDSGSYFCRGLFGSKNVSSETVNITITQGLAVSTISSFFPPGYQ
Method: as §1, §2

[5] = biological target: T5, human OX40 expressed on DO11.10 cells (DO11.10-hOX40) (human, UniProt P43489 29-277); assay: flow cytometry on DO11.10 cells expressing the target, mean ± SD of three experiments
T5 construct: Also used here for OX40 on primary human T cells in the functional rows; also called human OX40 receptor; OX40 on human T cells
T5 sequence: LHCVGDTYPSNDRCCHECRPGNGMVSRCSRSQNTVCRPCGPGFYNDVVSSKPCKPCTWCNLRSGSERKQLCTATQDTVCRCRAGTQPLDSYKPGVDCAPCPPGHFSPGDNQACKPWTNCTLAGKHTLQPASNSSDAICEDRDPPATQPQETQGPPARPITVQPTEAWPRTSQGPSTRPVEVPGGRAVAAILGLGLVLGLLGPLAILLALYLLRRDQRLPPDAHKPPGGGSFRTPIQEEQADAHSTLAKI
Method: (§3) 50 μl of the antibody dilutions were added to the wells containing cells (final volume 100 μl) and incubated at 4° C. for 1 hour. […] The plates were washed and resuspended in 100 μl of PBS containing DAPI (Biotium, cat no 40043) at 1 μg/ml. The plates were analysed using a Canto II flow cytometer (BD Bioscience) and the data analysed using FlowJo. Dead cells were identified by their higher fluorescence on the UV (405 nm/450/50) channel and excluded from analysis. […] The GMFI data was fit using log (agonist) vs response (three parameters) in Graph Pad Prism Software to generate EC₅₀ values.
(§4) However, in this experiment, instead of using HEK cells to analyse the non-specific binding, non-transduced DO11.10 cells were used. […] The experiment was repeated three times to increase the reliability of the EC₅₀ values calculated.

[6] = biological target: T6, cynomolgus OX40 expressed on DO11.10 cells (DO11.10-cOX40) (cynomolgus, UniProt P43489 29-277 (human entry)); assay: as above
T6 chain: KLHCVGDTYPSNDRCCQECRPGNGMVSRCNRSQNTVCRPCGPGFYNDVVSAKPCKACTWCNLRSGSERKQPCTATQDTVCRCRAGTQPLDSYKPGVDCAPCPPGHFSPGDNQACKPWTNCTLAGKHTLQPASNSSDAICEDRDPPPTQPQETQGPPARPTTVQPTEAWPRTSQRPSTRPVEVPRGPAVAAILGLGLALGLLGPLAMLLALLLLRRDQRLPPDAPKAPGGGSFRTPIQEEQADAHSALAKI
Method: as §3, §4

[7] = biological target: T7, human CD137 expressed on DO11.10 cells (DO11.10-hCD137) (human, UniProt Q07011 24-255); assay: as above
T7 construct: also called CD137 on human T cells
T7 sequence (Q07011 24-255): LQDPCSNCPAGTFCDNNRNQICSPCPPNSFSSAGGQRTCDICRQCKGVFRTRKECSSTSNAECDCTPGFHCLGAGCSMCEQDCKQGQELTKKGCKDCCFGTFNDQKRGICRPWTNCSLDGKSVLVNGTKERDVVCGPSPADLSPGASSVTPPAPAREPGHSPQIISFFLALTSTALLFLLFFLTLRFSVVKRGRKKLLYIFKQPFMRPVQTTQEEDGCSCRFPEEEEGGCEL
Method: as §3, §4

T1 sequence (P12314 16-288 limits assumed): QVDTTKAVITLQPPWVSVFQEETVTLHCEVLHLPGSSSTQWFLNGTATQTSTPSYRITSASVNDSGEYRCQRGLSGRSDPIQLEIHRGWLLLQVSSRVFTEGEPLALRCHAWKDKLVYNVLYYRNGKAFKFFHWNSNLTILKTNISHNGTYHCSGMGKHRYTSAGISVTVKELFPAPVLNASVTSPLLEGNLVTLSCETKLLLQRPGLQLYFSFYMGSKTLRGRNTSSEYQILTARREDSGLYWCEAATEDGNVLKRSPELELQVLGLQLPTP

B1: FS20-22-49AA/FS30-10-16 (bispecific antibody, human IgG1, kappa, L234A L235A)
heavy: EVQLLESGGGLVQPGGSLRLSCAASGFTFSSYDMSWVRQAPGKGLEWVSDIDPTGSKTDYADSVKGRFTISRDNSKNTLYLQMNSLRAEDTAVYYCARDLLVYGFDYWGQGTLVTVSSASTKGPSVFPLAPSSKSTSGGTAALGCLVKDYFPEPVTVSWNSGALTSGVHTFPAVLQSSGLYSLSSVVTVPSSSLGTQTYICNVNHKPSNTKVDKKVEPKSCDKTHTCPPCPAPEAAGGPSVFLFPPKPKDTLMISRTPEVTCVVVDVSHEDPEVKFNWYVDGVEVHNAKTKPREEQYNSTYRVVSVLTVLHQDWLNGKEYKCKVSNKALPAPIEKTISKAKGQPREPQVYTLPPSRDEYWDQEVSLTCLVKGFYPSDIAVEWESNGDEQFAYKTTPPVLDSDGSFFLYSKLTVDQYRWNPADYFSCSVMHEALHNHYTQKSLSLSPG
light: EIVLTQSPGTLSLSPGERATLSCRASQSVSSSYLAWYQQKPGQAPRLLIYGASSRATGIPDRFSGSGSGTDFTLTISRLEPEDFAVYYCQQSYSYPVTFGQGTKVEIKRTVAAPSVFIFPPSDEQLKSGTASVVCLLNNFYPREAKVQWKVDNALQSGNSQESVTEQDSKDSTYSLSSTLTLSKADYEKHKVYACEVTHQGLSSPVTKSFNRGEC
notes: IgG1 with LALA; also called OX40/CD137 mAb^2; copies: 2 + 2
binding response at end of association phase of FcγR [1]: 238 RU
binding response at end of association phase of FcγR [2]: 37.4 RU
binding response at end of association phase of FcγR [3]: 34.3 RU
binding response at end of association phase of FcγR [4]: 31.4 RU
EC50 [5]: 0.22 nM
EC50 [6]: 0.71 nM
EC50 [7]: 0.11 nM

Reference: patent US20220048996A1 (F STAR BETA, published 2022)
